Experimental findings from paper PMC5508515 (Cell reports, 2016) are described below.

Residue numbers refer to the chain shown, from its start. Names may count otherwise. Like-named read-outs stand apart in the source and are kept apart here.

The target in data set [1] is purified human IKK1 used for single-particle cryo-EM (human) (UniProt O15111). As to the kind of experiment: cryo-EM structure.
For data set [2] the target is unchanged. In words: cryo-EM structure. The source holds these as a separate data set.
Another data set deals with IKK1 (1–676) (human) (UniProt O15111). In words: SEC. For orientation: In gel filtration, larger molecules generally elute earlier.
The target in data set [3] is T1, HA-IKK1 WT overexpressed in 293T cells (human), O15111.
T1 chain: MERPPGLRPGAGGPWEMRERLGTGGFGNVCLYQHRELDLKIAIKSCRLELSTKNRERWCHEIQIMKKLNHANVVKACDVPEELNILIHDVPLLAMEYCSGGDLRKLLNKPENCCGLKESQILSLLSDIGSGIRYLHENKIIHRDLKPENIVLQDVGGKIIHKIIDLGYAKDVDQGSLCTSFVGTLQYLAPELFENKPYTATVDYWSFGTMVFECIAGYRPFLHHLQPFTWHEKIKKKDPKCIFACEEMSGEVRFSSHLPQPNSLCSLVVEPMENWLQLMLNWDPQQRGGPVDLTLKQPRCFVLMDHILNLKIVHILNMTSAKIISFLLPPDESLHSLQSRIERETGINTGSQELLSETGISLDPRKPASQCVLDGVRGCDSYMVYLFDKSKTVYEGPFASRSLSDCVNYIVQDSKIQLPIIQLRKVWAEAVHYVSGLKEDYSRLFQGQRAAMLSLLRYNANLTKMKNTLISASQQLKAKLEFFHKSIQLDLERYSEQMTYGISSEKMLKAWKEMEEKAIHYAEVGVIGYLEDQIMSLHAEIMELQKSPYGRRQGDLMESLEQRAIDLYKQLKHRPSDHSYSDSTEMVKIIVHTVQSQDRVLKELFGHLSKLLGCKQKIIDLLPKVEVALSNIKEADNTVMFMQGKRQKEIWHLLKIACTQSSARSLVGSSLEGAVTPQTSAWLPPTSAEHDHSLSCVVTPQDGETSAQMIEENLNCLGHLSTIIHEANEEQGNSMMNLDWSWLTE
As to the kind of experiment: SEC. The conditions noted are these: remark: other sources report otherwise.

Data set [4] deals with the molecule itself. As to the kind of experiment: SEC.
Data set [5] concerns the molecule itself. As to the kind of experiment: SEC. The source holds these as a separate data set.
In data set [6] the target is T2, human IKK1 (residues 10–667; EE) (human), O15111.
T2 chain: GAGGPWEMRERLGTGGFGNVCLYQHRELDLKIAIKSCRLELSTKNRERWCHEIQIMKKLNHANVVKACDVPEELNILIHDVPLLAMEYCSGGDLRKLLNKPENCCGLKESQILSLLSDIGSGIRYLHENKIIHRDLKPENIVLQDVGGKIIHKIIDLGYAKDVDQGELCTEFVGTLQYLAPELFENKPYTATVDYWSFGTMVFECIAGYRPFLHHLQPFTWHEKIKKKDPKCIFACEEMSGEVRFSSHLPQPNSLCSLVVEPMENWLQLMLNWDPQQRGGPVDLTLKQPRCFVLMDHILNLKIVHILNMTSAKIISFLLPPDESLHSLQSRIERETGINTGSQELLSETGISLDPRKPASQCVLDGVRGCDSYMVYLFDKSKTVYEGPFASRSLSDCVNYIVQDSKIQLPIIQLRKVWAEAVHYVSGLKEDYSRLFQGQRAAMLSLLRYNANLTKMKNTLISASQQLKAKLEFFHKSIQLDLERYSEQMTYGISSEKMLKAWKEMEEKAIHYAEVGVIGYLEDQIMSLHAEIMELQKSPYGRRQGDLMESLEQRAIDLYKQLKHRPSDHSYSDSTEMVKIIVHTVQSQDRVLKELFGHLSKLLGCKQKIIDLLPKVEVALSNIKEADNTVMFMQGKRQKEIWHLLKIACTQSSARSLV
In words: crystal structure. The conditions noted are these: remark: other sources report otherwise.

For data set [7], the target named is T2, human IKK1 (residues 10–667; EE) …. As to the kind of experiment: crystal structure. The conditions noted are these: remark: other sources report otherwise.

Take “purified human IKK1 used for single-particle cryo-EM (from UniProt O15111 10-660) (enzyme)”: in data set [1], the stoichiometry N (in general, the number of molecules, sites or subunits per partner or assembly) amounted to 2. In data set [2], this molecule gave a percent of particles not conforming to dimers (hexamer) of 2% and a stoichiometry N of 6.

“IKK1 (1–676) (from UniProt O15111 1-676) (domain or fragment)” showed a stoichiometry N with IKK1 (1–676) (human) of 2.

B1: HA-IKK1 WT overexpressed in 293T cells, O15111 1-745 (enzyme)
chain: T1 chain
Take B1: the stoichiometry N in data set [3] turned out to be 2.

B2: HA-IKK1 HY (H578A Y580A) overexpressed in 293T cells (enzyme, human, UniProt O15111 1-745, looked up)
chain: T1 chain with H578A, Y580A
B2: the “stoichiometry N” value in the data set “SEC [4]” came to 2.

B3: IKK2 (1–700) (domain or fragment, UniProt O14920 1-700, looked up)
chain: MSWSPSLTTQTCGAWEMKERLGTGGFGNVIRWHNQETGEQIAIKQCRQELSPRNRERWCLEIQIMRRLTHPNVVAARDVPEGMQNLAPNDLPLLAMEYCQGGDLRKYLNQFENCCGLREGAILTLLSDIASALRYLHENRIIHRDLKPENIVLQQGEQRLIHKIIDLGYAKELDQGSLCTSFVGTLQYLAPELLEQQKYTVTVDYWSFGTLAFECITGFRPFLPNWQPVQWHSKVRQKSEVDIVVSEDLNGTVKFSSSLPYPNNLNSVLAERLEKWLQLMLMWHPRQRGTDPTYGPNGCFKALDDILNLKLVHILNMVTGTIHTYPVTEDESLQSLKARIQQDTGIPEEDQELLQEAGLALIPDKPATQCISDGKLNEGHTLDMDLVFLFDNSKITYETQISPRPQPESVSCILQEPKRNLAFFQLRKVWGQVWHSIQTLKEDCNRLQQGQRAAMMNLLRNNSCLSKMKNSMASMSQQLKAKLDFFKTSIQIDLEKYSEQTEFGITSDKLLLAWREMEQAVELCGRENEVKLLVERMMALQTDIVDLQRSPMGRKQGGTLDDLEEQARELYRRLREKPRDQRTEGDSQEMVRLLLQAIQSFEKKVRVIYTQLSKTVVCKQKALELLPKVEEVVSLMNEDEKTVVRLQEKRQKELWNLLKIACSKVRGPVSGSPDSMNASRLSQPGQLMSQPSTASNSLPE
On to B3, for which the “stoichiometry N” value in “SEC [5]” turned out to be 2.

B4: human IKK1 (residues 10–667; EE), O15111 10-667 (domain or fragment)
chain: T2 chain
Regarding B4, the stoichiometry N in data set [6] was 2; in data set [7], 6.
